Like-named read-outs stand apart in the source and are kept apart here.
Experiments:
[1] = molecular target: T1, Synechocystis sp. PCC 6803 alcohol dehydrogenase SynAdh (slr1192, BAA18840), wild type, SEQ ID NO:4, overexpressed, crude extract (Synechocystis sp. PCC 6803, UniProt P74721); assay: Acetaldehyde reduction by crude extract of Synechocystis overexpressing SynAdh, varied cosubstrate (Lineweaver-Burk); type: biochemical; settings: pH 6.1
T1 construct: PCC 6803; crude cell extract
T1 sequence (P74721 1-336): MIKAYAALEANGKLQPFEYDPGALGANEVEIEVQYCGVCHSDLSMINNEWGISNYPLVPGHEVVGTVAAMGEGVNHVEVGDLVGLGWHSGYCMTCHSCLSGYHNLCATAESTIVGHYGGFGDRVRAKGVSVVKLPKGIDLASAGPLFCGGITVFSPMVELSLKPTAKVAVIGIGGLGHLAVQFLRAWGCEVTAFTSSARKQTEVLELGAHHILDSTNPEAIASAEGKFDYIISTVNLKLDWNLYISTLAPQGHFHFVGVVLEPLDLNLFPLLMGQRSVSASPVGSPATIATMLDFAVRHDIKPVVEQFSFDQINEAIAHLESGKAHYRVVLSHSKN
Method: The Adh enzyme from Synechocystis was further characterized by preparing crude cell extracts from Synechocystis PCC6803 overexpressing SynAdh.
For preparation of crude extracts, cells were pelleted, dissolved in buffer supplemented with 1 mM DTT and broken (beadbeater, 2×10 min, glass beads with 100 μm diameter). The supernatant of a centrifugation (15 min, 14000 rpm, 4° C., Micro 200R, Hettich) was used for the experiments.
The Adh activity was measured as rate of the increase of the absorbance at 340 nm. […] The reaction was started by addition of an acetaldehyde solution to a final concentration of 0.125 mM and the rate of decrease of the absorbance at 340 nm was measured. […] Protein was determined by the method of Lowry.
Measurements were performed at pH 6.1.

[2] = test system: Zymomonas mobilis ADH II, crude extract of Synechocystis strain 6803-pVZ-PisiA (pVZ-PisiA-Pdc-AdhII); assay: Adh activity of crude extract of strain 6803-pVZ-PisiA in the direction of ethanol formation (Lineweaver-Burk); type: biochemical; settings: for Km: read-out: Km for acetaldehyde
Method: For preparation of crude extracts, cells were harvested, washed with 40 mM MES/Tris (pH 6.5), 1 mM DTT and broken (beadbeater, 2×10 min). The supernatant of a centrifugation (15 min, 14000 rpm, 4° C., Micro 200R, Hettich) was used for the determination of Adh activity in cells.
The initial velocity was calculated from the dE/min at 340 nm.
In order to compare the dates acquired with intact cells, the kinetic constants of alcohol dehydrogenase in crude extracts of strain 6803-pVZ-PisiA were measured. […] A graphical representation of the results obtained is given in form of a “Lineweaver-Burk” plot (FIG. 8).
In a second experiment the Adh activity was measured at pH 7.5. NADH and NADPH were used as co-substrates.

[3] = test system: Zymomonas mobilis ADH II (with Pdc) in intact Synechocystis PCC 6803 cells, strain 6803-pVZ-PisiA (pVZ-PisiA-Pdc-AdhII); assay: Ethanol production by intact cells of strain 6803-pVZ-PisiA after addition of acetaldehyde (Lineweaver-Burk); type: cell-based, Synechocystis PCC 6803 (Zymomonas mobilis AdhII)
Method: Methods: Synechocystis PCC 6803 wild type and the transgenic strain “6803-pVZ-PisiA”, corresponding to the above described Synechocystis pVZ-PisiA-Pdc-AdhII, were washed twice with BG11 (centrifugation 15 min, 4500 rpm, 4° C.; Rotina 420R, Hettich) and redissolved in BG11. Aliquots of 2 ml were spiked with acetaldehyde. The assays were incubated at room temperature under illumination. Samples of 250 μl were removed in defined time intervals (5 min or 10 min) and centrifuged (3 min, 14000 rpm, room temperature, Micro 200R, Hettich).
Ethanol was quantified with a described protocol. The method is based on oxidation of ethanol catalyzed by alcohol dehydrogenase (Sigma, Adh of S. cerevisiae). NADH formed in this reaction, reacts with the PMS/MTT reagent to a dye.
OD750 of the culture was 0.56.
This experiment was repeated with a different culture of strain 6803-pVZ-PisiA of OD750 of 1.353 and a chlorophyll concentration of 4.6 μg/ml. Similar results were obtained.

[4] = test system: Zymomonas mobilis ADH II (ZmAdhII); settings: literature values; ranges given jointly for ADH I and ADH II; cited from earlier work
[5] = test system: Zymomonas mobilis ADH I (ZmAdhI, AAV89860), SEQ ID NO:2; settings: literature values; ranges given jointly for ADH I and ADH II; cited from earlier work
[6] = substrate: NC(=O)C1=CN([C@@H]2O[C@H](COP(=O)(O)OP(=O)(O)OC[C@H]3O[C@@H](n4cnc5c(N)ncnc54)[C@H](O)[C@@H]3O)[C@@H](O)[C@H]2O)C=CC1; assay: cells, lysate or membranes; settings: other: acetaldehyde reduction, crude extract, pH 6.1
[7] = substrate: NC(=O)C1=CN([C@@H]2O[C@H](COP(=O)(O)OP(=O)(O)OC[C@H]3O[C@@H](n4cnc5c(N)ncnc54)[C@H](OP(=O)(O)O)[C@@H]3O)[C@@H](O)[C@H]2O)C=CC1; assay: cells, lysate or membranes; settings: other: acetaldehyde reduction, crude extract, pH 6.1
[8] = substrate: CC=O; assay: Acetaldehyde reduction (forward reaction) by purified SynAdh, Km determination; type: biochemical, Synechocystis sp. PCC 6803; settings: other: acetaldehyde reduction
Method: (§1) Fraction 2 of the purification was used for the measurement of the kinetic parameters of the SynAdh as described in the following.
(§2) Both ethanol oxidation and acetaldehyde reduction were analyzed at different pH values. Experiments were made at pH 7.5 in presence of high concentrations of KCl in order to mimic the intracellular conditions.
For measurements at pH 6.0 HEPES/KOH was substituted by 30 mM MES/KOH (pH 6.0), KCl was omitted.
(§3) The Km and vmax values of SynAdh for the different substrates were determined with Lineweaver-Burk plots.

[9] = substrate: NC(=O)C1=CN([C@@H]2O[C@H](COP(=O)(O)OP(=O)(O)OC[C@H]3O[C@@H](n4cnc5c(N)ncnc54)[C@H](O)[C@@H]3O)[C@@H](O)[C@H]2O)C=CC1; assay: purified protein, by the assay type; settings: other: acetaldehyde reduction
[10] = substrate: NC(=O)C1=CN([C@@H]2O[C@H](COP(=O)(O)OP(=O)(O)OC[C@H]3O[C@@H](n4cnc5c(N)ncnc54)[C@H](OP(=O)(O)O)[C@@H]3O)[C@@H](O)[C@H]2O)C=CC1; assay: purified protein, by the assay type; settings: other: acetaldehyde reduction
[11] = substrate: CCO; assay: purified protein, by the assay type; settings: other: ethanol oxidation
[12] = substrate: NC(=O)c1ccc[n+]([C@@H]2O[C@H](COP(=O)([O-])OP(=O)(O)OC[C@H]3O[C@@H](n4cnc5c(N)ncnc54)[C@H](O)[C@@H]3O)[C@@H](O)[C@H]2O)c1; assay: purified protein, by the assay type; settings: other: ethanol oxidation
Method: as §1, §2
For measurements at pH 8.5 HEPES/KOH was substituted by 30 mM Tris/HCl (pH 8.5), KCl was omitted.
as §3

[13] = substrate: NC(=O)c1ccc[n+]([C@@H]2O[C@H](COP(=O)([O-])OP(=O)(O)OC[C@H]3O[C@@H](n4cnc5c(N)ncnc54)[C@H](OP(=O)(O)O)[C@@H]3O)[C@@H](O)[C@H]2O)c1; assay: purified protein, by the assay type; settings: other: ethanol oxidation
[14] = pH 7.5, NADH 0.25 M or NADPH 0.21 M

NC(=O)C1=CN([C@@H]2O[C@H](COP(=O)(O)OP(=O)(O)OC[C@H]3O[C@@H](n4cnc5c(N)ncnc54)[C@H](OP(=O)(O)O)[C@@H]3O)[C@@H](O)[C@H]2O)C=CC1 [NADPH]
vmax for NADPH [1]: 0.4 μMol min^−1 ml^−1 crude extract

NC(=O)C1=CN([C@@H]2O[C@H](COP(=O)(O)OP(=O)(O)OC[C@H]3O[C@@H](n4cnc5c(N)ncnc54)[C@H](O)[C@@H]3O)[C@@H](O)[C@H]2O)C=CC1 [NADH, reduced nicotinamide-adenine dinucleotide]
vmax for NADH [1]: 1.6 μMol min^−1 ml^−1 crude extract

CC=O [acetaldehyde]
Vmax ([2]; pH 6.5, NADH in excess): 7.2 μMol L^−1 mg^−1 chlorophyll | Km ([2]; pH 6.5, NADH in excess): 45 µM | Vmax [2, 14]: 0.89 μMol L^−1 mg^−1 chlorophyll | Km [2, 14]: 100 µM | Km ([3]; OD750 0.56): 18 µM | Vmax ([3]; OD750 0.56): 3.2 µmol/L/min | Vmax ([3]; repeat, OD750 1.353): 4.35 µmol/L/min | Km ([3]; repeat, OD750 1.353, chlorophyll 4.6 μg/ml): 25 µM | Vmax ([3]; repeat, using chlorophyll as reference): 0.95 µmol/L/mg

NC(=O)c1ccc[n+]([C@@H]2O[C@H](COP(=O)([O-])OP(=O)(O)OC[C@H]3O[C@@H](n4cnc5c(N)ncnc54)[C@H](O)[C@@H]3O)[C@@H](O)[C@H]2O)c1 [NAD^+, nicotinamide-adenine dinucleotide]
Km [4]: 110 µM | Km [5]: 73 µM

CCO [ethanol]
Km [4]: 140 µM | Km [5]: 24 µM

B1: Synechocystis sp. PCC 6803 alcohol dehydrogenase SynAdh (slr1192, BAA18840), wild type, SEQ ID NO:4, overexpressed, crude extract (Synechocystis sp. PCC 6803 … (protein)
chain: T1 sequence (P74721 1-336)
Km [6]: 1000 µM | Km [7]: 15 µM

B2: Synechocystis sp. PCC 6803 alcohol dehydrogenase SynAdh (slr1192, BAA18840), wild type, SEQ ID NO:4, purified (Synechocystis sp. PCC 6803 substr. Kazusa) (protein)
chain: T1 sequence (P74721 1-336)
Km ([8]; pH 6.0): 200 μM μM | Km ([8]; pH 7.5, 150 mM KCl, pH 7.5): 180 μM μM | Km ([8]; purified enzyme): 200 µM | Km ([9]; pH 7.5, 150 mM KCl, pH 7.5): 1000 μM μM | Km ([9]; purified enzyme): 1000 µM | Km ([10]; pH 6.0): 20 μM μM | Km ([10]; pH 7.5, 150 mM KCl, pH 7.5): 15 μM μM | Km ([10]; purified enzyme): 15 µM | Km ([11]; pH 7.5, 150 mM KCl, pH 7.5): 23 mM mM | Km ([11]; pH 8.5): 59 mM mM | Km ([12]; pH 7.5, 150 mM KCl, pH 7.5): 10 mM mM | Km ([12]; pH 8.5): 10 mM mM | Km ([13]; pH 7.5, 150 mM KCl, pH 7.5): 15 μM μM | Km ([13]; pH 8.5): 15 μM μM

Source: patent US8163516B2 (Algenol Biofuels Inc., priority 2008, dated 2012)
